Results published in the DeepSol protein solubility set.

Assay: soluble on expression in E. coli; label from the status in PepcDB or PDB records

Sequence | soluble on expression in E. coli
MGSDKIHHHHHHMYDLIGVGIGPMNLGLSALAHPTPLRTLFFDESEQFSWHPGMMIKDSMMQTSFISDLVTLADPTSPFTYLNYLRSLNRLHTFYFYEKLLISRQEYNAYLKWVSTQLDDLHFSTRVIDIQDTGDSYEVLVEEVATGKRTTYETRNVVLGTGSKPSIPGSFDKNVIHNTQYVMEKEAILQQDKVSIVGSGQSAAEIFLDLLTSDRPETFELEWISRSTIFETLETGKLGEEIFSPSYVRYFNSLPLATRQEAVAKFTRSQNGISPETLQAIYEHLYDLSPEEQQRVKIRANLEVDQISYDSDFTITMRHTELNEQRTSKTGAVVAATGFVPSLPRFINRLDIEFEGEQQAWKVDANYRISRTVSANHHLYATTNLELSHGPAADNLGMSVSRNQLILNDVAGKELYPVEQHATFTTFD | not soluble
MGSDKIHHHHHHMYLIGSDIGTQGTKSVIVNEKGEVLAEAFREYEVITPKPNWAEQWPDVWVKAVFETVKEVVEKSGVSKKEIAGIAISGLYGGSGIPVDRNMQPLRPCLIWMDRRAVKETEWVKQNVPKEKLFEITGNYVDSYFGFTKIMWIRNNEPEIWEKIYKFITPKDYVIYQMTGEVVIDYSSAGNLGGVFDIRKLTWSKEMCDVLGIPIEFLPERIVKSSDVVGRVTKEASELCGLLEGTPVVAGGIDAPVAQLSAGALEEGEHVAMVGTSTCWGTVHDGSKLAFGLVNYPYVVYDTERIYTFGGSATTGALARWFKEQFGESETIVGERTGISPYQLFDKEVANIPAGSEGIIVLPYFMGERSPIWDPTARGVFFGVTLYHKRAHLYRALMEGGAYALRHNMEEGLKAGLKLNDECWIVGGVSKSSVWVKIFADVTGFKMRQVASLVEAPYGDAFLAGLGTGVIDKPERIKEWVKYRDPVEPDPENKKIYDRYYEIYRELYERTKDLMARL | not soluble
MGSDKIHHHHHHMYLKELSMMPGVSGDEGKVRDFIKSKIEGLVDNLYTDVLGNLIALKRGRDSSKKLLVSAHMDEVGFVVSKIEKDGKVSFLPVGGVDPRILPGKVVQVKNLKGVIGYRPIHLQRDEENTPPRFENLRIDFGFSSADEAKKYVSIGDYVSFVSDYIEKNGRAVGKAFDDRAGCSVLIDVLESGVSPAYDTYFVFTVQEETGLRGSAVVVEQLKPTCAIVVETTTAGDNPELEERKWATHLGDGPAITFYHRGYVIPKEIFQTIVDTAKNNDIPFQMKRRTAGGTDAGRYARTAYGVPAGVISTPARYIHSPNSIIDLNDYENTKKLIKVLVEEGKIVEVVS | not soluble
MGSDKIHHHHHHMYPQRIEPQPGQESVWDYPRPPRLEDTSKHIQIIFNGVIIADTQNAKRVLETSHPPSYYIPPGDIKMEHLIPTPQSSFCEWKGLAGYYTIRVGDKEVQNAAWFYPNPTTAFASLRDHVAFYAHLMDACYVDGDQVEPQPGNFYGGWITKDVVGPFKGIPGSWGW | not soluble
MGSDKIHHHHHHMYQPISIVNIYYQGFGDKRLIGKLTMDGRRPTFGYDAAWLADGLELSPIEMPLRSAPYYGSHASSHYLCGLLSDSLPDGWGMLLMDRFFRRTISNTAPVNILDRLAYIGDSAMGALSFEPQHDLSANVIDMSELTLAKLAAANQTILSGQDSDILAELIVIGGSPQGARPKALVLYDESSDFITTDTASKNPSATSWLIKFPAQSEHKSVCLLEALYADMAKKAGLNMPMHHYFDIDSEYAAFGVERFDRMGNQRVHIHTLAGLLDIDFRIPSLDYLQYLRCVRMLTQSQLAVESAFKHAVFNVIFNNKDDHSKNFSFMMNEAGSWSLSPVYDLAYNSGMNGYHQMDVAGEARYPTLSHLLKLAKLADIKQNKAQAIIDQVASVAEDFLTVINDHDIEKELSNRVIQDIKANINRMVS | not soluble
MGSDKIHHHHHHMYRVIELGHVISAPFAGEILRHLGFEVIKIEPLLGDPSRKDDVLVDSMFVFNNRGKRSISVDLRKEKGKEVFLRLVRNSHVLIENLSPHVMDRLGLSDDVIFSTNPSLVYCSIKGYPKGKYENLPAFGTIIEAESGIMDANGKARLPASITDMNASTYCVITILWALLMKKPGHYRVSIIQANTVWLGYYLIAYQKYGKLFEAGKDELPFWAPYELFKSSEEKEFYLAVNDNEKFTKLCKALGLEDLLADERFKTNADRVRNRKILHEKLQQKFSSMKLEEIMNILRYNDIPVGKLNNLKDLISNELVEWDTFRNVQVPKLPLPGSLNSQHVPNVGEDTLYILKELGYSENEIESMIKENVINYNK | not soluble
MGSDKIHHHHHHMYSLAVNNGTLSDEQISGLVHQALADRQLDGQRILILIPDGTRTAPIPQIFRLLHQELGKRVPALDFLIALGTHNPMSEEQINHLVGVTPKERETTFKKVRIFNHLWNEPDTFISCGVISADEIAEISRGMLHQSVEVRVNKLVTQYDLIMICGPVFPHEVVGFSGGNKYFFPGIGGQEVIDISHWLGALITSYEIIGTSGITPVRRLINRAANLISTPKLCLAMVVAPKTNQLAGLYIDKPESAWEAAAKLSDKLHITYVDRSFKQVLSVMPEMYDDIWTAAKGMYKLEPVVADGGEVIIYAPHITEFSYTHGEILSQIGYHVRDYFLKQWDKFQAYPGGVLAHSTHLKGMGTFDFTEGEKARIRVTLATGISAERCAAHNLNYRDPATIRPTEWANREDEGILLVPKSGEILYRLIQA | not soluble
MGSDKIHHHHHHMYSTTQHQSPETVVTVSSLGKAYKIYNSKRDRAKQLIFQNRRKYFQEHWALRNISFDLRRGESIGIVGKNGSGKSTLLQLICGTLKPSQGEVIVNGKIAALLELGSGFNPEFSGRENVYLNASILGLNKQEIQERLDDILAFADIGNYVDQPVRTYSSGMVVRLAFSVIAHVDADILIVDEALSVGDAYFTQKCMRFIQRFQEKGSLLFVSHDANAILSLCNRALLINQGELKRVGKPKEVIEDYTRDLQKRNLADQNNKINRPERMKEQENTAHMKRQSGVQYTQKNIENEIMKWSDYRCKLINSSNLANTIVITRFDETLTTRETYGGEKAEITNVELENIETNKTIQNIKGGEIVRLRLKFEARTAIGRPIIGFILKNSKGLTILGDNTNNSISENNDFNAFEGDKVTTDFVFTVPMLQQGEYMISVSVADGCITEHEILHWMNDALLLRSQCTSIAAGLAGVPMHSISIEIEK | not soluble
MGSDKIHHHHHHMYVGTQVAARDDEDFKVWAQLGVKNISADPPGKPASWVLDDFERLRDKVESFGLVLDMVQLPLPSRPIEQASYPDILLAGPERDRQIDAVCTMIENIAKAGIPAAKYNLNLIGIPRTEMELGRGGSLNEAWRWDKADHNADPGLAGVLSEDENWERIDYFLERVVPVAASNKVRLACHPHDPYTPPGYKGVTRVLGTIEGLKKFVQMRENPYHGLNFCQGSIGEMLDNPREEIDDIIRWFGSRDKIFNVHFRNISGGKLSFMETFPDEGDMDMVRSLKLYHELGYRYMIMPDHVPTIAGRDPVGVAFGFCYGYIAALIEALDNKHL | not soluble
MGSDKIHHHHHHMYYISLNVKRRKLNKDNNYNEFLTDPIYSRLIENVEKLKDKVFHLSKIVNLQAYMEGFTFYTSSNYRSTPIDVIPRIITSELFFKISNYLVARSYVLNKFIREVYQEGSNPIPDWIVKTTPYFRPEMMGFSPPKDIYIHVYGADIVRVNGVPFILEDNLRIPSGISYSYKAFEYVDRFLPELKEGYDNRVLQINGLDYLYDILRYVSGNKDPIIVILTDGNYNSAYFEHKFISEKLGIILAEPNDIYVKDKEVVVRTVDEGEVHVDVIYRRIEDLDYLTPGLMKAYLRGWVTLANAPGTGVADDKATFVWIPYLAEKYGIKLENVIQPYTICLYEKENLEKVITQPTRYVIKKREGYGGIGLAIVKDDNINVLKEIYKEYENFIAQEVLDFDTVISVVNDSFYETYADMRIFTYYDKVASAVLSRVGIMGSRITNNSSGGMVKPLWIIK | not soluble
MGSDKIHHHHHHNDDDDKYYYPTNFENLSLPNDTIIAKGEDLTLKPTLNLINPKIYSWKIDGKEVSNEVNYTFSTSVGGKHEIIFEAQDSKGNTDKAQITVDVFAYYGGFYVINEGWAGHDPASVNYYKDGKWNFNIVESLGQTGTVGVIQDSYMYIVAKDAPYLTQIELANFNITKQLSTEIEEQLDYGQANSFCTINETTGILTASRGAYKINLNPLSIGNMLPQLNSESANGNGCKDILKSGDYVFVNNMDTIKIYKSSDLSFVKKLTALMKTGFAQTKDGNIWAANGQSLIKIDPKTLDETTVELPDNINVFYNQWAYTPTGLCASTTENALYIVNTTVVPGAYGDSYYGKNIYKYNTESKIAQEFFKAPSKIQSIYGAGIQVNPQNGDVYLIYTEDGYGTHYLNTNIYVADGQSGTQKQIIDYTGKYWFPSSIVFK | not soluble
MGSDKIHHHHHHNEMTEMNPDTNRTIGLDVYTEVQTRGTETTTSTLKANAGFGIFAYQTSSAGWNSEKGNTTPNFMYNEHATWTSDSWGYTNLRFWPIDDKKITFFAYAPYESKPEVGTDQKITLSGQNAKGAPTITFEVKTSNNWKDMIDLVTDCHTAIQDQTNESNKGTVQFKFSHVLTQIANIKVKPDVNLGTDTKIFVTGLKLDPGSTTLYNKAVYKFDNDTWEAISPDASYFSTEQDLSDFLNKTTTDQWGYNKSSINVSDDQNATALFSDTEALYFIPVNNKNGTTNAGDLKLKINYDIVTKVTDTSNLTSTITNKEVSLPKNTFKKGTKHTYVLTIKMNAIKITVEDNMEGWTDDSDSDINVEK | not soluble
MGSDKIHHHHHHNTPREVTLHFLRTAGHPLTRWALQRQPPSPKQLEEEFLKIPSNFVSPEDLDIPGHASKDRYKTILPNPQSRVCLGRAQSQEDGDYINANYIRGYDGKEKVYIATQGPMPNTVSDFWEMVWQEEVSLIVMLTQLREGKEKCVHYWPTEEETYGPFQIRIQDMKECPEYTVRQLTIQYQEERRSVKHILFSAWPDHQTPESAGPLLRLVAEVEESPETAAHPGPIVVHCSAGIGRTGCFIATRIGCQQLKARGEVDILGIVCQLRLDRGGMIQTAEQYQFLHHTLALYAGQLPEEPSP | not soluble
MGSDKIHHHHHHQKEGSLKIGKEGAESGFINLRVEIPPGAFGKQKVLKITRLSDEERKLYPDVFVGDLYRVEFADGVDEFALKPIRLKYYFDAKYLRGENYNNLTFAYATEDGGYRIIPGSMIGKDERGYYVEAFTYHLSVFGVVLRSAGFQKHGIRLLREAVNSSGPAVLLVPGEDPTFEGVVKDNNIWETIFPDRTIMTYEYALYEPRSLAYSEMYRSFIEKEGRRSFIDFESDFLSQEILKYSQYEFDILAHGTGGLIVLRMLQRHPEVNNVRKVVLLSTPVQGTNVVNPLYFSSIFYGKDPEVLEDIFGIEWTKLKMLTLHIRNLIDTLGEVVQEILPDSQLVKELGGFSRNDVEIVSICGDTPPYGVDVSGTELERFYPEFVKGRGDGFVSIQSCRVGKVEQLSGNFYDLYSREENVAYIRELLKYEVQVFSGFRSDDYEEYLPSKNPELSEESAQKVVEVKETEGTEFPVLPVNILFENFLERIRSLELSSYLSGALVGKEVYIATESGVFAWDKKVLDKKIEFFKKIEDYASFVGEGDIFIIDNIGIKKYAPFPLVGDISDALITRNAIIYARVVPGGVRYYLFRNGAEKLIATSPGTTVRMKSENGNYLLITDGEVVAIGSDFKEKGRVLSSLFGEKVKIVDASFKDDAFYILLNDGSIAFVSSSRSETKNYGLAVPKKVLNFQGRILVVYDGVILDLSAGKAQRFDRGIIDVFPGNESLFIVFDEKVRVSVEEWWLSKD | not soluble
MGSDKIHHHHHHSCTQDSDTFYPSSPEEEHPSVDESRMIPIQLSVDGVDQFYGGAVTRSGETVARLVQPLDSTYDTGYDVETTVESIPLENIVSTRANLGNVQFRVVAYRTDASSADHYAGTAVYKTNGSGVAAIVAKTATPVNSAGQWILGPGTYTFVCYSYGLNSAPAMLSGNWSATVSHNQDFMLCRKEEVVVAPDDRGEFTLGGISFTRQCALLQLAVTANDFTNNTVQQCAATVSNLNSNNITWNAGQTALSTGGTGGAVNFSWSSLNAATVNSNVYKVLPQSSRTLTIKLTTLRIGNIQYNNRVTVNASGRQFAAGGNYKITVKITGNGITVGGATWAKGNVYKSGSNFYFESSQSGYHSGTQGGSFFGWNTLSSTNNTYGGSSFSSDNDPCYQVAPRGTWCTPTANQLQNLGNSGYRSGYLDGKRGGYFGGNKVFLPAMGNRGKNNVNYWPETGYYRSSTGASGKRCYYLEFNQSYAVKNNYYWYWDGFPIRCVKR | not soluble
